Usually Kd stands for the constant that tells how readily two partners part at equilibrium.

Experimental findings from patent US20240084011A1 are described below.

First the molecules themselves.
B1: 78-8D14 scFv (scFv, part only; not given: Linker, domain order, 3xFLAG tag, V domains shown, not shown: another chain or arm of the molecule; small tags and cut ends)
VH: EVQLVESGGGLVQPGGSLRLSCAASGFTFSSYVMHWVRQAPGKGLEWVSAISWSGRGTYYADSVKGRFTISRDNSKNTLYLQMNSLRAEDTAVYYCARGRLFGLARYGEAFDVWGQGTLVTVSS
VL: DIQMTQSPSSLSASVGDRVTITCQASRDISNYLNWYQQKPGKAPKLLIYDASNLETGVPSRFSGSGSGTDFTFTISSLQPEDIATYYCQQFNSFPLTFGQGTKVEIK
B2: 78-24D9 scFv (scFv, part only; not given: Linker, domain order, 3xFLAG tag, V domains shown, not shown: another chain or arm of the molecule; small tags and cut ends)
VH: EVQLVESGGGLVQPGGSLRLSCAASGFTFSSSSMHWVRQAPGKGLEWVSGISGWGGSTSYADSVKGRFTISRDNSKNTLYLQMNSLRAEDTAVYYCARYLMSFNLTRTGWFDVWGQGTLVTVSS
VL: B1 VL with R27Q, S30A, F91S, N92D, S93A, F94W, L96W
B3: 78-8D5 scFv (scFv, part only; not given: Linker, domain order, 3xFLAG tag, V domains shown, not shown: another chain or arm of the molecule; small tags and cut ends)
VH: B1 VH with R56G, R106L
VL: B1 VL with R27K
B4: 78-24D12 scFv (scFv, part only; not given: Linker, domain order, 3xFLAG tag, V domains shown, not shown: another chain or arm of the molecule; small tags and cut ends)
VH: B2 VH with S32Y, W54S, G56L, Y99D, S102A, W110G
VL: B1 VL with R27H, S30L, F91G, N92H, S93A, F94W, P95L, L96W
B5: 78-8D4 scFv (scFv, part only; not given: Linker, domain order, 3xFLAG tag, V domains shown, not shown: another chain or arm of the molecule; small tags and cut ends)
VH: B1 VH with S52T, R56G, A105V
VL: B1 VL with R27K
B6: 78-24D1 scFv (scFv, part only; not given: Linker, domain order, 3xFLAG tag, V domains shown, not shown: another chain or arm of the molecule; small tags and cut ends)
VH: B2 VH with S30T, S32Y, W54S, G56R, Y99D, S102A, T108A, W110G
VL: B1 VL with R27Q, Y32F, F91G, N92D, S93A, F94W, L96W
B7: 78-8D2 scFv (scFv, part only; not given: Linker, domain order, 3xFLAG tag, V domains shown, not shown: another chain or arm of the molecule; small tags and cut ends)
VH: B1 VH with S52T, R106L
VL: B1 VL with R27K, T74I
B8: 78-28 scFv (scFv, part only; not given: Linker, domain order, 3xFLAG tag, V domains shown, not shown: another chain or arm of the molecule; small tags and cut ends)
VH: EVQLVESGGGLVQPGGSLRLSCAASGFTFSSYYMHWVRQAPGKGLEWVSAIYGNGGYTYYADSVKGRFTISRDNSKNTLYLQMNSLRAEDTAVYYCARGRPARHQVGFDVWGQGTLVTVSS
VL: B1 VL with R27L, F91L, N92Y, S93T, F94V
B9: 78-8D10 scFv (scFv, part only; not given: Linker, domain order, 3xFLAG tag, V domains shown, not shown: another chain or arm of the molecule; small tags and cut ends)
VH: MEVQLVESGGGLVQPGGSLRLSCAASGFTFSSYVMHWVRQAPGKGLEWVSAISWSGRGTYYADSVKGRFTISRDNSKNTLYLQMNSLRAEDTAVYYCARGRLFGLALYGEAFDVWGQGTLVTVSS
VL: B1 VL with R27K
B10: 78-8D6 scFv (scFv, part only; not given: Linker, domain order, 3xFLAG tag, V domains shown, not shown: another chain or arm of the molecule; small tags and cut ends)
VH: B1 VH with A23V, R56G, R106L
VL: B1 VL with R27K, D50N
B11: 78-24D8 scFv (scFv, part only; not given: Linker, domain order, 3xFLAG tag, V domains shown, not shown: another chain or arm of the molecule; small tags and cut ends)
VH: B2 VH with E6K, S32Y, W54S, G56R, Y99D, S102A, W110G
VL: B1 VL with R27Q, S76N, F91G, N92D, S93A, F94W, L96W
B12: 78-24D17 scFv (scFv, part only; not given: Linker, domain order, 3xFLAG tag, V domains shown, not shown: another chain or arm of the molecule; small tags and cut ends)
VH: B2 VH with W54S, G109S
VL: B1 VL with R27Q, D28A, F91G, N92D, S93A, F94W, L96W
B13: 78-36 scFv (scFv, part only; not given: Linker, domain order, 3xFLAG tag, V domains shown, not shown: another chain or arm of the molecule; small tags and cut ends)
VH: MEVQLVESGGGLVQPGGSLRLSCVASGFTFSSYYMHWVRQAPGKGLEWVSAISGSGGSTYYADSVKGRFTISRDNSKNTLYLQMNSLRAEDTAVYYCARGRQVGKSSFGEAFDVWGQGTLVTVSS
VL: B1 VL with R27Q, N92T, L96Y
B14: 78-8D7 scFv (scFv, part only; not given: Linker, domain order, 3xFLAG tag, V domains shown, not shown: another chain or arm of the molecule; small tags and cut ends)
VH: B1 VH with R56A, L104R, R106L
VL: B1 VL with R27K, N31I, S52F, P59S
B15: 78-8D22 scFv (scFv, part only; not given: Linker, domain order, 3xFLAG tag, V domains shown, not shown: another chain or arm of the molecule; small tags and cut ends)
VH: B1 VH with R56S
VL: B1 VL with R27K, P95A
B16: 78-8 scFv (scFv, part only; not given: Linker, domain order, 3xFLAG tag, V domains shown, not shown: another chain or arm of the molecule; small tags and cut ends)
VH: B1 VH with W53G, R56G, F102I, R106L
VL: B1 VL with R27K

Residue numbers refer to the chain shown, from its start.

Sequence of recombinant human CTLA-4 protein (human) (P16410 36-161 limits assumed): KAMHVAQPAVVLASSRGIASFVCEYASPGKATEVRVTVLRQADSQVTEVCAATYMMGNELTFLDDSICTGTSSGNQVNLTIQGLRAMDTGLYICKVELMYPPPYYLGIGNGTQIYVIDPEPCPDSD

The target of one test is recombinant mouse CTLA-4 protein (mouse) (UniProt P09793). As to the kind of experiment: SPR (Pioneer FE, OneStep), 25 C; 3xFLAG scFv captured by anti-FLAG M2, mouse CTLA-4 as analyte.
Sequence of recombinant mouse CTLA-4 protein (mouse) (P09793 36-161 limits assumed): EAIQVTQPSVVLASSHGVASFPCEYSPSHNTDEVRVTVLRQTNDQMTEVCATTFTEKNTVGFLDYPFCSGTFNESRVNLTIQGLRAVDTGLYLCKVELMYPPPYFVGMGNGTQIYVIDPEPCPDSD
With B1, the Kd is 0.17 nM. The same measure, in the same setting: the figure for B2 is 1.11 nM. On the same count and under the same terms, the figure for B3 is 0.42 nM; for B4 it is 0.01 nM; for B5 it is 0.2 nM. Still for that read-out and setting: the figure for B6 is 0.059 nM; for B7 it is 0.3 nM; for B8 it is 2.57 nM. Take B9: the Kd worked out at 0.49 nM. The same measure, in the same setting: the figure for B10 is 0.19 nM; for B11 it is 0.01 nM; for B12 it is 1.06 nM. Same read-out and setting: the figure for B13 is 0.98 nM. As for B14, the Kd is 0.39 nM. B15: the Kd stood at 0.37 nM. B16: the Kd turned out to be 0.06 nM.

Another test has as its target recombinant human CTLA-4 protein (human) (UniProt P16410). As to the kind of experiment: SPR (Pioneer FE, OneStep), 25 C; 3xFLAG scFv captured by anti-FLAG M2, human CTLA-4 as analyte.
Regarding B1, the Kd turned out to be 0.32 nM. On the same count and under the same terms, the figure for B2 is 1.18 nM. Still for that read-out and setting: the figure for B3 is 0.74 nM; for B4 it is 2.88 nM; for B5 it is 0.21 nM. The same measure, in the same setting: the figure for B6 is 1.15 nM; for B7 it is 0.37 nM. With B9, the Kd is 0.58 nM. On the same count and under the same terms, the figure for B10 is 0.24 nM; for B11 it is 1.46 nM; for B12 it is 0.87 nM. Same read-out and setting: the figure for B14 is 0.3 nM; for B15 it is 0.16 nM. In the case of B16, the Kd was 168 nM.
